T1: MBP-OsBZR1 (Oryza sativa, UniProt Q7XI96 1-298)
T1 sequence: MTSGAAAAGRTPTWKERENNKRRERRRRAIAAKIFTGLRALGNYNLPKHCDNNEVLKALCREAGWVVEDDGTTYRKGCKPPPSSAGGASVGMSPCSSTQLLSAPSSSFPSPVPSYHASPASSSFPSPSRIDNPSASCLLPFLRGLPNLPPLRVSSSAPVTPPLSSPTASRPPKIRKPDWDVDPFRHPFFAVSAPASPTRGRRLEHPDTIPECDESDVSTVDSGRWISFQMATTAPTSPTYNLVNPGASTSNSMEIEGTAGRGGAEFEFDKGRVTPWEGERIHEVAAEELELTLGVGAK


target: T1, MBP-OsBZR1; experiment: EMSA; EMSA, 20 uL: 2 ug protein; 2 uL 10x buffer (100 mM Tris, 500 mM KCl, 10 mM DTT, pH 7.5), 1 uL each of 50% glycerol, 1% NP-40, 1 M KCl, 100 mM MgCl2, 200 mM EDTA, 1 ug/uL poly(dI-dC); i.e. about 10 mM Tris, 100 mM KCl, 5 mM MgCl2, 10 mM EDTA; 25 C, 20 min; 10% native PAGE; conditions: protein: recombinant; tags: MBP (N-terminal fusion, pETMALc-H); chain copies: 2; label: biotin 3' end; blunt

| Binder | binding result |
| --- | --- |
| LIC promoter P1 (dsDNA) DNA 1: CGACGTCGTGCGGCCGCG DNA 2: CGCGGCCGCACGACGTCG | binds |
| LIC promoter P2 (dsDNA) DNA 1: CGGGCGCGTGTGTGGCGG DNA 2: CCGCCACACACGCGCCCG | no binding |
| MP1 (P1 with CGTGCG to CGAAAA) (dsDNA) DNA 1: CGACGTCGAAAAGCCGCG DNA 2: CGCGGCTTTTCGACGTCG | no binding |

Reference: paper PMC3343102, “Dynamics of Brassinosteroid Response Modulated by Negative Regulator LIC in Rice”
